Source: EP4663654A1 (Hangzhou Sciwind Biosciences Co., Ltd., dated 2025)
Starred links: 1 amine or outer side, 2 acyl side, 3 side chain; linkers in the order of their positions; H or OH if unused. Non-standard residues stand in square brackets, D forms with d. *: point of attachment. C20 diacid = O=C(O)CCCCCCCCCCCCCCCCCCC(=O)*; γGlu = O=C(O)[C@H](CCC(=O)[*:2])N[*:1]; Hyp = O=C(O)[C@@H]1C[C@@H](O)CN1; NMeD = CN[C@@H](CC(=O)O)C(=O)O; NMeN = CN[C@@H](CC(N)=O)C(=O)O

B1: polypeptide derivative M41 (peptide)
peptide: {C20 diacid-γGlu}-ASQLSTAATQRLADFLRHSSQQLKPILPPTNVGSNT[Hyp]-NH2
SMILES: CC[C@H](C)[C@H](NC(=O)[C@@H]1CCCN1C(=O)[C@H](CCCCN)NC(=O)[C@H](CC(C)C)NC(=O)[C@H](CCC(N)=O)NC(=O)[C@H](CCC(N)=O)NC(=O)[C@H](CO)NC(=O)[C@H](CO)NC(=O)[C@H](Cc1c[nH]cn1)NC(=O)[C@H](CCCNC(=N)N)NC(=O)[C@H](CC(C)C)NC(=O)[C@H](Cc1ccccc1)NC(=O)[C@H](CC(=O)O)NC(=O)[C@H](C)NC(=O)[C@H](CC(C)C)NC(=O)[C@H](CCCNC(=N)N)NC(=O)[C@H](CCC(N)=O)NC(=O)[C@@H](NC(=O)[C@H](C)NC(=O)[C@H](C)NC(=O)[C@@H](NC(=O)[C@H](CO)NC(=O)[C@H](CC(C)C)NC(=O)[C@H](CCC(N)=O)NC(=O)[C@H](CO)NC(=O)[C@H](C)NC(=O)CC[C@H](NC(=O)CCCCCCCCCCCCCCCCCCC(=O)O)C(=O)O)[C@@H](C)O)[C@@H](C)O)C(=O)N[C@@H](CC(C)C)C(=O)N1CCC[C@H]1C(=O)N1CCC[C@H]1C(=O)N[C@H](C(=O)N[C@@H](CC(N)=O)C(=O)N[C@H](C(=O)NCC(=O)N[C@@H](CO)C(=O)N[C@@H](CC(N)=O)C(=O)N[C@H](C(=O)N1C[C@H](O)C[C@H]1C(N)=O)[C@@H](C)O)C(C)C)[C@@H](C)O
B2: polypeptide derivative M45 (peptide)
peptide: {C20 diacid-γGlu}-ASQLSTAATQRLADFLRHSSN[NMeD]LKPILPPTNVGSNT[Hyp]-NH2
SMILES: CC[C@H](C)[C@H](NC(=O)[C@@H]1CCCN1C(=O)[C@H](CCCCN)NC(=O)[C@H](CC(C)C)NC(=O)[C@H](CC(=O)O)N(C)C(=O)[C@H](CC(N)=O)NC(=O)[C@H](CO)NC(=O)[C@H](CO)NC(=O)[C@H](Cc1c[nH]cn1)NC(=O)[C@H](CCCNC(=N)N)NC(=O)[C@H](CC(C)C)NC(=O)[C@H](Cc1ccccc1)NC(=O)[C@H](CC(=O)O)NC(=O)[C@H](C)NC(=O)[C@H](CC(C)C)NC(=O)[C@H](CCCNC(=N)N)NC(=O)[C@H](CCC(N)=O)NC(=O)[C@@H](NC(=O)[C@H](C)NC(=O)[C@H](C)NC(=O)[C@@H](NC(=O)[C@H](CO)NC(=O)[C@H](CC(C)C)NC(=O)[C@H](CCC(N)=O)NC(=O)[C@H](CO)NC(=O)[C@H](C)NC(=O)CC[C@H](NC(=O)CCCCCCCCCCCCCCCCCCC(=O)O)C(=O)O)[C@@H](C)O)[C@@H](C)O)C(=O)N[C@@H](CC(C)C)C(=O)N1CCC[C@H]1C(=O)N1CCC[C@H]1C(=O)N[C@H](C(=O)N[C@@H](CC(N)=O)C(=O)N[C@H](C(=O)NCC(=O)N[C@@H](CO)C(=O)N[C@@H](CC(N)=O)C(=O)N[C@H](C(=O)N1C[C@H](O)C[C@H]1C(N)=O)[C@@H](C)O)C(C)C)[C@@H](C)O
B3: polypeptide derivative M42 (peptide)
peptide: {C20 diacid-γGlu}-ASQLSTAATQRLADFLRHSSEELKPILPPTNVGSNT[Hyp]-NH2
SMILES: CC[C@H](C)[C@H](NC(=O)[C@@H]1CCCN1C(=O)[C@H](CCCCN)NC(=O)[C@H](CC(C)C)NC(=O)[C@H](CCC(=O)O)NC(=O)[C@H](CCC(=O)O)NC(=O)[C@H](CO)NC(=O)[C@H](CO)NC(=O)[C@H](Cc1c[nH]cn1)NC(=O)[C@H](CCCNC(=N)N)NC(=O)[C@H](CC(C)C)NC(=O)[C@H](Cc1ccccc1)NC(=O)[C@H](CC(=O)O)NC(=O)[C@H](C)NC(=O)[C@H](CC(C)C)NC(=O)[C@H](CCCNC(=N)N)NC(=O)[C@H](CCC(N)=O)NC(=O)[C@@H](NC(=O)[C@H](C)NC(=O)[C@H](C)NC(=O)[C@@H](NC(=O)[C@H](CO)NC(=O)[C@H](CC(C)C)NC(=O)[C@H](CCC(N)=O)NC(=O)[C@H](CO)NC(=O)[C@H](C)NC(=O)CC[C@H](NC(=O)CCCCCCCCCCCCCCCCCCC(=O)O)C(=O)O)[C@@H](C)O)[C@@H](C)O)C(=O)N[C@@H](CC(C)C)C(=O)N1CCC[C@H]1C(=O)N1CCC[C@H]1C(=O)N[C@H](C(=O)N[C@@H](CC(N)=O)C(=O)N[C@H](C(=O)NCC(=O)N[C@@H](CO)C(=O)N[C@@H](CC(N)=O)C(=O)N[C@H](C(=O)N1C[C@H](O)C[C@H]1C(N)=O)[C@@H](C)O)C(C)C)[C@@H](C)O
B4: polypeptide derivative M43 (peptide)
peptide: {C20 diacid-γGlu}-ASQLSTAATQRLADFLRHSSSSLKPILPPTNVGSNT[Hyp]-NH2
SMILES: CC[C@H](C)[C@H](NC(=O)[C@@H]1CCCN1C(=O)[C@H](CCCCN)NC(=O)[C@H](CC(C)C)NC(=O)[C@H](CO)NC(=O)[C@H](CO)NC(=O)[C@H](CO)NC(=O)[C@H](CO)NC(=O)[C@H](Cc1c[nH]cn1)NC(=O)[C@H](CCCNC(=N)N)NC(=O)[C@H](CC(C)C)NC(=O)[C@H](Cc1ccccc1)NC(=O)[C@H](CC(=O)O)NC(=O)[C@H](C)NC(=O)[C@H](CC(C)C)NC(=O)[C@H](CCCNC(=N)N)NC(=O)[C@H](CCC(N)=O)NC(=O)[C@@H](NC(=O)[C@H](C)NC(=O)[C@H](C)NC(=O)[C@@H](NC(=O)[C@H](CO)NC(=O)[C@H](CC(C)C)NC(=O)[C@H](CCC(N)=O)NC(=O)[C@H](CO)NC(=O)[C@H](C)NC(=O)CC[C@H](NC(=O)CCCCCCCCCCCCCCCCCCC(=O)O)C(=O)O)[C@@H](C)O)[C@@H](C)O)C(=O)N[C@@H](CC(C)C)C(=O)N1CCC[C@H]1C(=O)N1CCC[C@H]1C(=O)N[C@H](C(=O)N[C@@H](CC(N)=O)C(=O)N[C@H](C(=O)NCC(=O)N[C@@H](CO)C(=O)N[C@@H](CC(N)=O)C(=O)N[C@H](C(=O)N1C[C@H](O)C[C@H]1C(N)=O)[C@@H](C)O)C(C)C)[C@@H](C)O
B5: polypeptide derivative M44 (peptide)
peptide: {C20 diacid-γGlu}-ASQLSTAATQRLADFLRHSSN[NMeN]LKPILPPTNVGSNT[Hyp]-NH2
SMILES: CC[C@H](C)[C@H](NC(=O)[C@@H]1CCCN1C(=O)[C@H](CCCCN)NC(=O)[C@H](CC(C)C)NC(=O)[C@H](CC(N)=O)N(C)C(=O)[C@H](CC(N)=O)NC(=O)[C@H](CO)NC(=O)[C@H](CO)NC(=O)[C@H](Cc1c[nH]cn1)NC(=O)[C@H](CCCNC(=N)N)NC(=O)[C@H](CC(C)C)NC(=O)[C@H](Cc1ccccc1)NC(=O)[C@H](CC(=O)O)NC(=O)[C@H](C)NC(=O)[C@H](CC(C)C)NC(=O)[C@H](CCCNC(=N)N)NC(=O)[C@H](CCC(N)=O)NC(=O)[C@@H](NC(=O)[C@H](C)NC(=O)[C@H](C)NC(=O)[C@@H](NC(=O)[C@H](CO)NC(=O)[C@H](CC(C)C)NC(=O)[C@H](CCC(N)=O)NC(=O)[C@H](CO)NC(=O)[C@H](C)NC(=O)CC[C@H](NC(=O)CCCCCCCCCCCCCCCCCCC(=O)O)C(=O)O)[C@@H](C)O)[C@@H](C)O)C(=O)N[C@@H](CC(C)C)C(=O)N1CCC[C@H]1C(=O)N1CCC[C@H]1C(=O)N[C@H](C(=O)N[C@@H](CC(N)=O)C(=O)N[C@H](C(=O)NCC(=O)N[C@@H](CO)C(=O)N[C@@H](CC(N)=O)C(=O)N[C@H](C(=O)N1C[C@H](O)C[C@H]1C(N)=O)[C@@H](C)O)C(C)C)[C@@H](C)O

The binders below were run against T1, human amylin receptor (AMY3) on CHO-K1/Ga15/AMY3 amylin receptor/CRE-luc cells (human, UniProt P30988 25-474; O60896 24-148) (assay: cell-based or functional assay).
T1 sequence (looked up) 1: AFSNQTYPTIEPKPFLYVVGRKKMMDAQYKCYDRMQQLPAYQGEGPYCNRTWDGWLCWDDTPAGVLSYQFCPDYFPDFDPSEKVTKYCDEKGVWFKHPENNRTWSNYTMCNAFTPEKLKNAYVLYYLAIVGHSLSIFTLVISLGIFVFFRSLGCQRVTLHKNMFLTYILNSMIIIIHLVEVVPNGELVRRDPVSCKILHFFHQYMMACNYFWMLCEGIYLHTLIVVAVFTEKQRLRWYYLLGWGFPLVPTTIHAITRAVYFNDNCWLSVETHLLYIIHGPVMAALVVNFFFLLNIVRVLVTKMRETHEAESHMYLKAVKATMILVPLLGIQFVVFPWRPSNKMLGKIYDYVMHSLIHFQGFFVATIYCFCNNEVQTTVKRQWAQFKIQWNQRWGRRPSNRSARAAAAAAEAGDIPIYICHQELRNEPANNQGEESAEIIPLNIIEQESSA
T1 sequence (looked up) 2: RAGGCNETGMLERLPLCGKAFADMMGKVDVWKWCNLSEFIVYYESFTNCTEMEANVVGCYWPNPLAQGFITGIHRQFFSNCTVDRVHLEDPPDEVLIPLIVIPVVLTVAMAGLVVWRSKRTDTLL

Row | Binder | EC50/nM, CRE-luciferase reporter in amylin receptor/CRE-luc CHO cells | Relative activity (the EC50 ratio of Cagrilintide to the compound)
1 | B1 | 0.08 nM | 113%
2 | B2 | 0.07 nM | 129%
3 | B3 | 0.28 nM | 32%
4 | B4 | 0.05 nM | 180%
5 | B5 | 0.1 nM | 130%
